For one experiment, the target named is T1, GST-Bcl-2 protein (UniProt P10415 1-205, limits assumed).
T1 construct: not shown: GST tag
In words: fluorescence polarization competition; 30 nM Flu-SEQ ID NO:30, 0.5 µM GST-Bcl-2, conjugate at 0.005-0.32 µM, 30 minutes at 37° C.

The target in the next experiment is Bax (UniProt Q07812 1-171, limits assumed). In words: fluorescence polarization, FIG. 2: C. (Polarisation of emitted light reports the rotation of a fluorescent probe.)
The target in experiment [1] is T2, SH3 domain of the Bcr-Abl oncoprotein (UniProt P00519 61-121).
T2 construct: domain: SH3 domain; also called Bcr-Abl SH3
T2 sequence (P00519 61-121 limits assumed): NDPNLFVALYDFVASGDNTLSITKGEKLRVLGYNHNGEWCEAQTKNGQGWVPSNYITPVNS
As to the kind of experiment: fluorescence polarization, FIG. 2: D.

The next experiment has as its target CD4 (UniProt P01730 26-396, limits assumed). In words: fluorescence polarization, FIG. 2: E.

No end group written: not given here. *: point of attachment. Decanoyl = CCCCCCCCCC(=O)*

T1 sequence (P10415 1-205 limits assumed): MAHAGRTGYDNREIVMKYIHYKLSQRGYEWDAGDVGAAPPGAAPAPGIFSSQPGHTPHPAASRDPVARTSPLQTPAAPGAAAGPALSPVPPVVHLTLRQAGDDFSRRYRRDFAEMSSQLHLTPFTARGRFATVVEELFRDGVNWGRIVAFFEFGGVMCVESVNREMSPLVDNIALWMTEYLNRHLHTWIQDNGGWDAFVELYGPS
Sequence of Bax (Q07812 1-171 limits assumed): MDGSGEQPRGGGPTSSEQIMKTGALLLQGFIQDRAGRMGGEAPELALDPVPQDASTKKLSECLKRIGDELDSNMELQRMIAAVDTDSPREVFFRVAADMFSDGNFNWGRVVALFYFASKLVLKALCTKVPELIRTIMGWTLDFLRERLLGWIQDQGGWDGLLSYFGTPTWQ

B1: decyl-SEQ ID NO:56 (CH3(CH2)8COHN-KNLWAAQRYGRELRRMSDEFEGSFKGL) (peptide)
peptide: Decanoyl-KNLWAAQRYGRELRRMSDEFEGSFKGL
notes: also called decyl-K1285
By EC50 is commonly meant the midpoint of the concentration-response curve. B1 came in with a concentration for a half-maximal effect (EC50) with GST-Bcl-2 protein of 130 nM.

B2: fluorescein-labeled peptide SEQ ID NO:30 (Flu-SEQ ID NO:30) (peptide)
peptide: GQVGRQLAIIGDDINR
modifications: also: fluorescein label, site of attachment not given here
notes: Synthetic peptide labeled with fluorescein; tracer of the fluorescence polarization assay; also called fluoresceinated BakBH3 peptide; Flu-SQ30
In the case of B2, the binding result (with Bax; in experiment [1]; in the experiment with CD4) was “no binding” throughout.
